Test results reported in paper doi:10.1101/2024.08.27.609886.

Biological target: FibrilPaint1
Assay: MST

E3 ligase CHIP (from UniProt Q9UNE7 23-303) (enzyme)
Kd: 1500 nM
